Source: article doi:10.1101/2020.01.02.893016 (bioRxiv, 2020)
Residue numbers refer to the chain shown, from its start. Numbers in names are those of the source.

Target: T1, ROOTY (RTY) protein, wild type, C-S lyase (Arabidopsis thaliana, UniProt Q9SIV0 1-462)
T1 sequence (looked up): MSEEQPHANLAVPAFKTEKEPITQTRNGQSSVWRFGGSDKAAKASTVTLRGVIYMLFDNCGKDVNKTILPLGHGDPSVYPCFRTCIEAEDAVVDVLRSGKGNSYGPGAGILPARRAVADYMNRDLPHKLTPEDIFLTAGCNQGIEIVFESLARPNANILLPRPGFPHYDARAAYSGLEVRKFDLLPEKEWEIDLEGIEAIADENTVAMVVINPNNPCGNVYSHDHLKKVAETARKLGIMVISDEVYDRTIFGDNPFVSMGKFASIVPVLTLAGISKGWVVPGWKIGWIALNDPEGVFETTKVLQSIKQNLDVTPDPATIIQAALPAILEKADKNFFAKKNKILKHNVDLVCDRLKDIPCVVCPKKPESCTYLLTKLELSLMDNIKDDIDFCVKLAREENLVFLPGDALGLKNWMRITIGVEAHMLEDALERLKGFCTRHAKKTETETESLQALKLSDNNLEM
Assay: two-hybrid

beta-galactosidase activity relative to WT-WT: ~80%
B1: ROOTY (RTY) protein, D315N mutant (TG8B allele) (enzyme, Arabidopsis thaliana, UniProt Q9SIV0 1-462, looked up)
chain: T1 sequence (looked up) with D315N
